Data from patent US20140228277A1 (Genentech, published 2014).
Positions of bridges follow the written chain, without caps; N, C: chain ends. Non-standard residues stand in square brackets, D forms with d. No end group written: not given here. Cit = NC(=O)NCCC[C@H](N)C(=O)O; Orn = NCCC[C@H](N)C(=O)O

What was measured:
[1] = biological target: T1, recombinant human BACE1 (rhBACE1) (human, UniProt P56817 22-457, limits assumed); experiment: cell-based or functional assay
[2] = biological target: T1, recombinant human BACE1 (rhBACE1); experiment: FP competition binding; 12 nM rhBACE1, competitor probe 5-TAMRA-BACE020
Protocol: BACE1 binding assays were carried out in a final volume of 10 μL per well in black 384-well microplates (Proxiplate-Plus; Perkin Elmer, Waltham, Mass.). […] The reaction was permitted to proceed towards equilibrium for 2 h at ambient temperature prior to fluorescence polarization measurement using Envision (Perkin Elmer). The parallel and perpendicular fluorescent emissions measured in each well at 595 nm (excitation 531 nm polarized light) were used to determine the milli-polarization level (mP) using the following formula: mP=1000*(S−G*P)/(S+G*P) where S=parallel emission, P=perpendicular emission and G=0.65.
The affinities of BACE1 peptide ligands were measured using the abovementioned competition binding FP assay for determining IC₅₀ values with serially diluted peptides. A Caliper assay was used to measure the inhibition of BACE1 enzymatic activity by peptide ligands.

[3] = biological target: T1, recombinant human BACE1 (rhBACE1); experiment: spot phage ELISA, signal on BACE1 over signal on BSA
Protocol: After 4 rounds of binding selection, individual phage clones were analyzed in a high-throughput spot phage ELISA (Sidhu, S. S. et al. (2000) Methods Enzymol 328: 333-63) using plate-immobilized BACE1 as the target. The binding signal of the same phage particle to BSA was detected as non-specific binding noise. Clones with phage binding signal to target over 0.5 and signal/noise ratio>3 were considered to be positive clones and were subjected to DNA sequence analysis.

[4] = biological target: T1, recombinant human BACE1 (rhBACE1); experiment: spot phage ELISA, plate-immobilized BACE1 against BSA

T1 sequence (P56817 22-457 limits assumed): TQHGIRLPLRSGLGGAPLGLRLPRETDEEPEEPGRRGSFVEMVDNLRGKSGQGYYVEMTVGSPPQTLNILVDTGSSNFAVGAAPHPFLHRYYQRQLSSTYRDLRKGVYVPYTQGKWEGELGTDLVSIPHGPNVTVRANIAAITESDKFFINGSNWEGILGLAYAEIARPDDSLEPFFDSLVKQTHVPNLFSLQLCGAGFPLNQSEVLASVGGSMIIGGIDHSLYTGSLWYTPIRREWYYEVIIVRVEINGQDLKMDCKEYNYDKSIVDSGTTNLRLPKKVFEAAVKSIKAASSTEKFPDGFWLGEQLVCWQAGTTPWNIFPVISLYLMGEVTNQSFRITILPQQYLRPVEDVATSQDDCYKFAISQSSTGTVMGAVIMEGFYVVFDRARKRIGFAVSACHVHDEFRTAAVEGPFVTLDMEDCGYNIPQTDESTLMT

B1: BACE020 (peptide)
peptide: Ac-NEESMYCRLLGIGCG-NH2
modifications: disulfide 7-14
SMILES: CC[C@H](C)[C@@H]1NC(=O)CNC(=O)[C@H](CC(C)C)NC(=O)[C@H](CC(C)C)NC(=O)[C@H](CCCNC(=N)N)NC(=O)[C@@H](NC(=O)[C@H](Cc2ccc(O)cc2)NC(=O)[C@H](CCSC)NC(=O)[C@H](CO)NC(=O)[C@H](CCC(=O)O)NC(=O)[C@H](CCC(=O)O)NC(=O)[C@H](CC(N)=O)NC(C)=O)CSSC[C@@H](C(=O)NCC(N)=O)NC(=O)CNC1=O
notes: also called BACE20; BACE-20
**Q.** Which “Caliper (MCE) BACE1 activity assay IC50” value [1] does the source give for B1 here?
**A.** Its value is 11 nM.

**Q.** What about the “HTRF BACE1 activity assay IC50” value [1] of the same binder?
**A.** Its value is 12 nM.

**Q.** What about the IC50 [2] of the same binder?
**A.** Its IC50 is 11 nM.

B2: phage-displayed peptide BACE019 (SEQ ID NO 15) (peptide)
chain: NELSPYCRLMGLGCD
notes: not shown: M13 major coat protein; peptide fused to its N-terminus
**Q.** B2 was tested. Which signal/noise ratio [3] did it give?
**A.** The signal/noise ratio was over 20.

**Q.** What about the “fold improvement of signal/noise ratio over parent BACE017” value (from here on “fold improvement of signal/noise ratio”) [4] of the same binder?
**A.** The value was over 5 fold.

B3: BACE018 (peptide)
peptide: Ac-KEESIYCRLMGLGCG-NH2
modifications: disulfide 7-14 (inferred)
notes: also called BACE-18
**Q.** What does the source list for B3?
**A.** Caliper (MCE) BACE1 activity assay IC50 [1]: 54 nM; HTRF BACE1 activity assay IC50 [1]: 77 nM; IC50 [2]: 102 nM

B4: BACE021 (peptide)
peptide: Ac-PEESLYCRLLALGCG-NH2
modifications: disulfide 7-14 (inferred)
notes: also called BACE-21
**Q.** Which “Caliper (MCE) BACE1 activity assay IC50” value [1] does the source give for B4 here?
**A.** Its value is 17 nM.

**Q.** What about the “HTRF BACE1 activity assay IC50” value [1] of the same binder?
**A.** Its value is 22 nM.

**Q.** What about the IC50 [2] of the same binder?
**A.** Its IC50 is 25 nM.

B5: phage-displayed peptide BACE018 (SEQ ID NO 14) (peptide)
chain: KEESIYCRLMGLGCG
notes: as for B2
**Q.** With B5 as the binder, how does the signal/noise ratio [3] read?
**A.** Its signal/noise ratio is over 20.

**Q.** What about the “fold improvement of signal/noise ratio” value [4] of the same binder?
**A.** The value was over 5 fold.

B6: phage-displayed peptide BACE021 (SEQ ID NO 17) (peptide)
chain: PEESLYCRLLALGCG
notes: as for B2
**Q.** How did the signal/noise ratio [3] turn out when B6 was run?
**A.** The signal/noise ratio was over 20.

**Q.** And the “fold improvement of signal/noise ratio” value [4]?
**A.** The value was over 5 fold.

B7: BACE010 (Ac-SGPYFIEYMSAV-NH2) (peptide)
peptide: Ac-SGPYFIEYMSAV-NH2
notes: also called BACE10
**Q.** How did the “Caliper (MCE) BACE1 activity assay, EC50 (rate increased)” value [1] turn out when B7 was run?
**A.** The value was 2200 nM.

**Q.** What about the IC50 [2] of the same binder?
**A.** The IC50 was over 10000 nM.

B8: BACE046 (peptide)
peptide: Ac-NEESAYCRLLGIGCG-NH2
modifications: disulfide 7-14 (inferred)
notes: also called BACE020 Met5 to Ala
**Q.** How did the “Caliper (MCE) BACE1 activity assay IC50” value [1] turn out when B8 was run?
**A.** The value was 435 nM.

**Q.** And the IC50 [2]?
**A.** The IC50 was 1570 nM.

B9: BACE049 (peptide)
peptide: Ac-NEESMYCRALGIGCG-NH2
modifications: disulfide 7-14 (inferred)
notes: also called BACE020 Leu9 to Ala
**Q.** With B9 as the binder, how does the “Caliper (MCE) BACE1 activity assay IC50” value [1] read?
**A.** The value was 1380 nM.

**Q.** What about the IC50 [2] of the same binder?
**A.** The IC50 was 7700 nM.

B10: BACE054 (peptide)
peptide: Ac-NEESMYCRLLGIGCA-NH2
modifications: disulfide 7-14 (inferred)
notes: also called BACE020 Gly15 to Ala
**Q.** What does the source list for B10?
**A.** Caliper (MCE) BACE1 activity assay IC50 [1]: 7 nM; IC50 [2]: 12 nM

B11: BACE048 (peptide)
peptide: Ac-NEESMYCALLGIGCG-NH2
modifications: disulfide 7-14 (inferred)
notes: also called BACE020 Arg8 to Ala mutant
**Q.** For B11, which “Caliper (MCE) BACE1 activity assay IC50” value [1] is on record?
**A.** The value was over 10000 nM.

**Q.** And the IC50 [2]?
**A.** Its IC50 is over 10000 nM.

B12: BACE056 (peptide)
peptide: Ac-NEEHMYCRLLGIGCG-NH2
modifications: disulfide 7-14 (inferred)
notes: also called BACE020 Ser4 to His
**Q.** Which results are given for B12?
**A.** Caliper (MCE) BACE1 activity assay IC50 [1]: 3580 nM; IC50 [2]: 4500 nM

B13: BACE053 (peptide)
peptide: Ac-NEESMYCRLLGIACG-NH2
modifications: disulfide 7-14 (inferred)
notes: also called BACE020 Gly13 to Ala
**Q.** For B13, which “Caliper (MCE) BACE1 activity assay IC50” value [1] is on record?
**A.** Its value is 7 nM.

**Q.** And the IC50 [2]?
**A.** The IC50 was 37 nM.

B14: BACE047 (peptide)
peptide: Ac-NEESMACRLLGIGCG-NH2
modifications: disulfide 7-14 (inferred)
notes: also called BACE020 Tyr6 to Ala
**Q.** B14 was tested. Which “Caliper (MCE) BACE1 activity assay IC50” value [1] did it give?
**A.** Its value is 93 nM.

**Q.** And the IC50 [2]?
**A.** Its IC50 is 225 nM.

B15: BACE055 (peptide)
peptide: Ac-NEESMFCRLLGIGCG-NH2
modifications: disulfide 7-14 (inferred)
notes: also called BACE020 Tyr6 to Phe
**Q.** For B15, which “Caliper (MCE) BACE1 activity assay IC50” value [1] is on record?
**A.** Its value is 11 nM.

**Q.** And the IC50 [2]?
**A.** The IC50 was 27 nM.

B16: BACE051 (peptide)
peptide: Ac-NEESMYCRLLAIGCG-NH2
modifications: disulfide 7-14 (inferred)
notes: also called BACE020 Gly11 to Ala
**Q.** How did the “Caliper (MCE) BACE1 activity assay IC50” value [1] turn out when B16 was run?
**A.** Its value is 18 nM.

**Q.** What about the IC50 [2] of the same binder?
**A.** Its IC50 is 36 nM.

B17: BACE052 (peptide)
peptide: Ac-NEESMYCRLLGAGCG-NH2
modifications: disulfide 7-14 (inferred)
notes: also called BACE020 Ile12 to Ala
**Q.** For B17, which “Caliper (MCE) BACE1 activity assay IC50” value [1] is on record?
**A.** Its value is 14 nM.

**Q.** What about the IC50 [2] of the same binder?
**A.** The IC50 was 39 nM.

B18: BACE050 (peptide)
peptide: Ac-NEESMYCRLAGIGCG-NH2
modifications: disulfide 7-14 (inferred)
notes: also called BACE020 Leu10 to Ala
**Q.** How did the “Caliper (MCE) BACE1 activity assay IC50” value [1] turn out when B18 was run?
**A.** The value was 49 nM.

**Q.** And the IC50 [2]?
**A.** The IC50 was 186 nM.

B19: phage-displayed peptide BACE020 (SEQ ID NO 16) (peptide)
chain: NEESMYCRLLGIGCG
modifications: disulfide 7-14; also: displayed on M13 phage as N-terminal fusion to the coat protein
notes: as for B2
**Q.** With B19 as the binder, how does the signal/noise ratio [3] read?
**A.** Its signal/noise ratio is over 20.

**Q.** And the “fold improvement of signal/noise ratio” value [4]?
**A.** The value was over 5 fold.

B20: BMS4 (peptide)
peptide: Ac-YPYFIPL-NH2
notes: also called Peptide 4 of Kornacker et al
**Q.** Which results are given for B20?
**A.** Caliper (MCE) BACE1 activity assay, EC50 (rate increased) [1]: 1760 nM; IC50 [2]: > 10000 nM

B21: BACE059 (peptide)
peptide: Ac-ESMYC[Orn]LLGIGCG-NH2
modifications: disulfide 5-12 (inferred)
notes: also called BACE030 with Arg to ornithine
**Q.** Which “Caliper (MCE) BACE1 activity assay IC50” value [1] does the source give for B21 here?
**A.** The value was 222 nM.

**Q.** And the IC50 [2]?
**A.** Its IC50 is 512 nM.

B22: BACE060 (peptide)
peptide: Ac-ESMYC[Cit]LLGIGCG-NH2
modifications: disulfide 5-12 (inferred)
notes: also called BACE030 with Arg to citrulline
**Q.** Which “Caliper (MCE) BACE1 activity assay IC50” value [1] does the source give for B22 here?
**A.** The value was 772 nM.

**Q.** What about the IC50 [2] of the same binder?
**A.** The IC50 was 2300 nM.

B23: BACE019 (peptide)
peptide: Ac-NELSPYCRLMGLGCD-NH2
modifications: disulfide 7-14 (inferred)
notes: also called BACE-19
**Q.** B23 was tested. Which “Caliper (MCE) BACE1 activity assay IC50” value [1] did it give?
**A.** Its value is 15 nM.

**Q.** What about the “HTRF BACE1 activity assay IC50” value [1] of the same binder?
**A.** The value was 10 nM.

**Q.** And the IC50 [2]?
**A.** Its IC50 is 10 nM.

B24: BMS2 (peptide)
peptide: Ac-ALYPYFLPISAK-NH2
notes: also called Peptide 2 of Kornacker et al
**Q.** Which “Caliper (MCE) BACE1 activity assay, EC50 (rate increased)” value [1] does the source give for B24 here?
**A.** Its value is 26400 nM.

**Q.** And the IC50 [2]?
**A.** Its IC50 is over 10000 nM.
